Source: article PMC9023272 (Nucleic Acids Research, 2022)

Legend:
[1] = target: T1, DEAD-box protein 5 (Dbp5), full length (Saccharomyces cerevisiae, UniProt P20449 1-482); assay: detailed balance of Scheme 1 from measured equilibrium constants
T1 sequence (looked up): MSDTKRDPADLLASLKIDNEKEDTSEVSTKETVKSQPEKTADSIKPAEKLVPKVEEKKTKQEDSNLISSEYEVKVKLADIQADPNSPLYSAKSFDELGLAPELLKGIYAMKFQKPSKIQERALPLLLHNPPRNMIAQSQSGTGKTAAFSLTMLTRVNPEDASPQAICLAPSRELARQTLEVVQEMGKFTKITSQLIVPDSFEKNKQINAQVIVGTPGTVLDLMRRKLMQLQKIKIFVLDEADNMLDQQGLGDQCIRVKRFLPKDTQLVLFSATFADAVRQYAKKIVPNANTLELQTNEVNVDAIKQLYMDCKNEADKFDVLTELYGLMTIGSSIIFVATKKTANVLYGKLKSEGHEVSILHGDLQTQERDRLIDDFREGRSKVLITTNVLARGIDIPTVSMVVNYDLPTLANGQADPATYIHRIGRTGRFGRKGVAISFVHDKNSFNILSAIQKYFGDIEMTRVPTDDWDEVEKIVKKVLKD

[2] = target: T1, DEAD-box protein 5 (Dbp5), full length; assay: stopped-flow fluorescence
[3] = target: T1, DEAD-box protein 5 (Dbp5), full length; assay: detailed balance of Scheme 3 from measured equilibrium constants
[4] = target: T1, DEAD-box protein 5 (Dbp5), full length; assay: as above; remark: listed apart in the source
[5] = target: T1, DEAD-box protein 5 (Dbp5), full length; assay: as above; remark: listed apart in the source

Kd [1]: 800 ± 300 nM | Kd [2]: 170 ± 150 nM | Kd [3]: 1.5 ± 0.8 nM | Kd [4]: 600 ± 200 nM | Kd [5]: 500 ± 200 nM
B1: Gle1 (a.a. 244–538), soluble truncated (domain or fragment, Saccharomyces cerevisiae, UniProt Q12315 244-538, looked up)
chain: TNFDKISKMFWHYKDKIAQIKQDIVLPIKKADVNVRNLLSRHKRKINPKFGQLTNSNQQLFKIQNELTQLINDTKGDSLAYHWILNFIAKAVVHQAETEVRVKPESALPLGKLTLYLLVQFPELQELFMARLVKKCPFVIGFTCEIDTEKGRQNMGWKRNNENKWEDNTSYDERMGGILSLFAIITRLQLPQEFITTTSHPFPIALSWHILARICNTPLNLITNTHFVILGSWWDAAAVQFLQAYGNQASKLLILIGEELTSRMAEKKYVGAARLRILLEAWQNNNMESFPEMSP
